From publication PMC4836315

Assays:
[1] = biological target: PRRSV nsp11 mutant F76A, pET-30a (+) construct (PRRSV strain WUH3)
[2] = biological target: PRRSV nsp11 mutant G1A (PRRSV strain WUH3); assay: SEC; data not shown; Superdex 75 10/300 GL under the same buffer conditions (20 mM Tris-HCl pH 7.4, 200 mM NaCl), 1 mg protein
[3] = biological target: PRRSV nsp11 mutant G137A (PRRSV strain WUH3); assay: as above
[4] = biological target: PRRSV nsp11 mutant G138A (PRRSV strain WUH3); assay: as above
[5] = biological target: PRRSV nsp11 mutant K173A, pET-42b (+) construct with C-terminal His6 tag (PRRSV strain WUH3); assay: SEC; Superdex 75 10/300 GL, 20 mM Tris-HCl pH 7.4, 200 mM NaCl, 0.6 ml/min, 4°C, 1 mg protein; masses from a calibration curve; fractions checked by SDS-PAGE
[6] = biological target: PRRSV nsp11 mutant K173A, pET-42b (+) construct with C-terminal His6 tag (PRRSV strain WUH3); assay: AUC; sedimentation velocity, 45,000 rpm, 18°C, 280 nm, c(s) distribution with Sedfit
[7] = biological target: PRRSV nsp11 mutant F76A made on the K173A template; assay: sedimentation velocity analytical ultracentrifugation (AUC)
[8] = biological target: PRRSV nsp11 mutant R153A made on the K173A template; assay: as above
[9] = biological target: PRRSV nsp11 mutant S74A made on the K173A template; assay: as above
[10] = biological target: PRRSV nsp11 mutant L54A (PRRSV strain WUH3); assay: SEC; data not shown; Superdex 75 10/300 GL under the same buffer conditions (20 mM Tris-HCl pH 7.4, 200 mM NaCl), 1 mg protein
[11] = biological target: PRRSV nsp11 mutant R55A (PRRSV strain WUH3); assay: as above
[12] = biological target: PRRSV nsp11 mutant S74A, pET-30a (+) construct (PRRSV strain WUH3)
[13] = biological target: PRRSV nsp11 mutant S166A (PRRSV strain WUH3); assay: SEC; data not shown; Superdex 75 10/300 GL under the same buffer conditions (20 mM Tris-HCl pH 7.4, 200 mM NaCl), 1 mg protein
[14] = biological target: PRRSV nsp11 mutant V165A (PRRSV strain WUH3); assay: as above
[15] = biological target: PRRSV nsp11 mutant Y69A (PRRSV strain WUH3); assay: as above
[16] = parent: 4.396 (dimer species, 86.67%), 2.614 (monomer species, 14.04%)
[17] = parent: 63.7 (dimer species, 86.67%), 29.2 (monomer species, 14.04%)

## PRRSV nsp11 mutant F76A, pET-30a (+) construct (enzyme)
[1]
  endoribonuclease activity (FRET assay, 2 μM enzyme, 1 μM fluorescent RNA substrate, 25°C), against wild-type nsp11 (fold less than wild type): > 4

## PRRSV nsp11 mutant G1A (enzyme)
[2]
  stoichiometry N: 2

## PRRSV nsp11 mutant G137A (enzyme)
[3]
  stoichiometry N: 2

## PRRSV nsp11 mutant G138A (enzyme)
[4]
  stoichiometry N: 2

## PRRSV nsp11 mutant K173A, pET-42b (+) construct with C-terminal His6 tag (enzyme)
[5]
  stoichiometry N: 2
[6]
  percent dimer: 86.7%
  percent monomer: 14%

## PRRSV nsp11 mutant K173A, pET-42b (+) construct with C-terminal His6 tag F76A
[7]; [16]
  other: sedimentation coefficient S20,W: 3.07 S
[7]; [17]
  other: calculated molecular weight (MW) from AUC: 37.8

## PRRSV nsp11 mutant K173A, pET-42b (+) construct with C-terminal His6 tag R153A
[8]; [16]
  other: sedimentation coefficient S20,W: 3.4 S
[8]; [17]
  other: calculated molecular weight (MW) from AUC: 40.7

## PRRSV nsp11 mutant K173A, pET-42b (+) construct with C-terminal His6 tag S74A
[9]; [16]
  other: sedimentation coefficient S20,W: 3.32 S
[9]; [17]
  other: calculated molecular weight (MW) from AUC: 50.2

## PRRSV nsp11 mutant L54A (enzyme)
[10]
  stoichiometry N: 2

## PRRSV nsp11 mutant R55A (enzyme)
[11]
  stoichiometry N: 2

## PRRSV nsp11 mutant S74A, pET-30a (+) construct (enzyme)
[12]
  endoribonuclease activity (FRET assay, 2 μM enzyme, 1 μM fluorescent RNA substrate, 25°C), against wild-type nsp11 (fold less than wild type): > 4

## PRRSV nsp11 mutant S166A (enzyme)
[13]
  stoichiometry N: 2

## PRRSV nsp11 mutant V165A (enzyme)
[14]
  stoichiometry N: 2

## PRRSV nsp11 mutant Y69A (enzyme)
[15]
  stoichiometry N: 2
